We go through one protein from doi:10.1101/2021.09.20.461157 (bioRxiv, 2021).

This series concerns the molecule itself. Description: cryo-EM structure.

B1: Mouse EHD4 (residues 22-541, EHD4^ΔN) (domain or fragment, UniProt Q9EQP2 22-541, looked up)
chain: QTVTGGLRSLYQRKVLPLEEAYRFHEFHSPALEDADFENKPMILLVGQYSTGKTTFIRYLLEQDFPGMRIGPEPTTDSFIAVMYGETEGSTPGNALVVDPKKPFRKLSRFGNAFLNRFMCSQLPNQVLKSISIIDSPGILSGEKQRISRGYDFCQVLQWFAERVDRIILLFDAHKLDISDEFSEAIKAFRGQDDKIRVVLNKADQVDTQQLMRVYGALMWSLGKVINTPEVLRVYIGSFWAQPLQNTDNRRLFEAEAQDLFRDIQSLPQKAAVRKLNDLIKRARLAKVHAYIISYLKKEMPNMFGKENKKRELIYRLPEIYVQLQREYQISAGDFPEVKAMQEQLENYDFTKFHSLKPKLIEAVDNMLTNKISSLMGLISQEEMNMPTQMVQGGAFDGTTEGPFNQGYGEGAKEGADEEEWVVAKDKPVYDELFYTLSPINGKISGVNAKKEMVTSKLPNSVLGKIWKLADCDCDGMLDEEEFALAKHLIKIKLDGYELPNSLPPHLVPPSHRKSLPKAD
Consider B1, for which the binding result is “binds”.
